{"source": "patent US20050130265", "key": {"Helios (Mus musculus)": {"target": "Helios (Mus musculus) (UniProt P81183)", "sequence (P81183 other isoform, or with tags, fused parts or gaps)": "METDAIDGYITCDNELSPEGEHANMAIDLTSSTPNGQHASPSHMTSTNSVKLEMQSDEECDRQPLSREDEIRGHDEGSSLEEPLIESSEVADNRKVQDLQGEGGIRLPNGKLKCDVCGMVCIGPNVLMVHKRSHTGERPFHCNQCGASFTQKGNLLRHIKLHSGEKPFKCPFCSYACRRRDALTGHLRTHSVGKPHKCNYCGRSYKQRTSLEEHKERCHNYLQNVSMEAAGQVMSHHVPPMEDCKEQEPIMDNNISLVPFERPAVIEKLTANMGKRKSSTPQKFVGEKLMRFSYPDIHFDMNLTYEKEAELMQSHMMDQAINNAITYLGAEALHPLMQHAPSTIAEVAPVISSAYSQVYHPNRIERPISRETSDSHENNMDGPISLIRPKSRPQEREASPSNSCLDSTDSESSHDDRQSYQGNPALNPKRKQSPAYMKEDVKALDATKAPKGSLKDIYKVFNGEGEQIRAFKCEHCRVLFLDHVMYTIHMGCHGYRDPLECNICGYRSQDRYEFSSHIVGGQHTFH", "assay": "cell_activity", "settings": "NIH3T3 reporter; requires Ikaros sites"}, "Ikaros": {"target": "Ikaros (UniProt Q03267)", "sequence (Q03267 other isoform, or with tags, fused parts or gaps)": "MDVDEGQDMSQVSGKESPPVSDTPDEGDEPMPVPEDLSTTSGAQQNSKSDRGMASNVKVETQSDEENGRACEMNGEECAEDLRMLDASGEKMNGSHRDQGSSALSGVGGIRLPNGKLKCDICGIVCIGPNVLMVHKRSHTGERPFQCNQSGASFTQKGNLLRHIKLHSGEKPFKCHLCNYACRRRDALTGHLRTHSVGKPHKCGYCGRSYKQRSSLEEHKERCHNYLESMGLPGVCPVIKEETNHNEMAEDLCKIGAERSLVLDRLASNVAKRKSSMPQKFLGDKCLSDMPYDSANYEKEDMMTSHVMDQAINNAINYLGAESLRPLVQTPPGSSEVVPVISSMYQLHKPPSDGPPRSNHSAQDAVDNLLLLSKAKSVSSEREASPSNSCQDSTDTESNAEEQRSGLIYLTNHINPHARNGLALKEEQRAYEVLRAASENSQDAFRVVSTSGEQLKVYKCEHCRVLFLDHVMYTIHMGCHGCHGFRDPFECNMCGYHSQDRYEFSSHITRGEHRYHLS", "assay": "cell_activity", "settings": "NIH3T3 reporter"}}, "data": [{"substance": "4x IkBS2 reporter", "values": [{"measurement": "activity (fold activation)", "setting": "Helios (Mus musculus)", "result": 5}, {"measurement": "activity (fold activation)", "setting": "Ikaros", "result": 7.8}]}]}
